Experimental data taken from patent US20060246421A1.

Target: wild-type NS3 protein of hepatitis C virus (hepatitis C virus) (UniProt Q9WMX2)
Test: cell-based or functional assay

D290A NS3 (ATPase-deficient mutant NS3 protein) (from UniProt Q9WMX2 1027-1657)
fold decrease in activity of the HCV-Luc replicon (luciferase) in Huh-7 cells, 48 h: 9 fold
